Reference: patent US20240124560A1

Experiments:
Assay in all cases: cell-based or functional assay
[1] = molecular target: HIV-1 Env of NIH-010_1054.07.TC4.1499 (HIV-1)
[2] = molecular target: HIV-1 Env of pseudovirus NIH-020_ZM197M.PB7 (HIV-1)
[3] = molecular target: HIV-1 Env of pseudovirus NIH-029_HIV-001428.2.42 (HIV-1)
[4] = molecular target: HIV-1 Env of NIH-030_HIV-0013095.2.11 (HIV-1)
[5] = molecular target: HIV-1 Env of pseudovirus NIH-008_WEAU.d15.410.787 (HIV-1)
[6] = molecular target: HIV-1 Env of NIH-019_Du422.1 (HIV-1)
[7] = molecular target: HIV-1 Env of NIH-116_T263.8 (HIV-1)
[8] = molecular target: HIV-1 Env of NAC_REJO.67 (HIV-1)
[9] = molecular target: HIV-1 Env of NIH-118_T255.34 (HIV-1)
[10] = molecular target: HIV-1 Env of pseudovirus NIH-100_6041.v3.c23 (HIV-1)
[11] = molecular target: HIV-1 Env of pseudovirus NIH-058_Q23ENV17 (HIV-1)
[12] = molecular target: HIV-1 Env of pseudovirus NIH-005_TRO.11 (HIV-1)
[13] = molecular target: HIV-1 Env of pseudovirus NAC_IAVIC22 (HIV-1)
[14] = molecular target: HIV-1 Env of pseudovirus NAC_89.6 (HIV-1)
[15] = molecular target: HIV-1 Env of pseudovirus NIH-061_Q259ENVd2.17 (HIV-1)
[16] = molecular target: HIV-1 Env of NIH-049_CNE20 (HIV-1)
[17] = molecular target: HIV-1 Env of NIH-101_6540.v4.c1 (HIV-1)
[18] = molecular target: HIV-1 Env of pseudovirus NHI-028_CAP210.E8 (HIV-1)
[19] = molecular target: HIV-1 Env of NIH-025_ZM109F.PB4 (HIV-1)
[20] = molecular target: HIV-1 Env of NIH-100_6041.v3.c23 (HIV-1)
[21] = molecular target: HIV-1 Env of pseudovirus NIH-018_Du172.17 (HIV-1)
[22] = molecular target: HIV-1 Env of NIH-077_BJOX009000.02.4 (HIV-1)
[23] = molecular target: HIV-1 Env of NIH-052_CNE30 (HIV-1)
[24] = molecular target: HIV-1 Env of isolate NIH-086_X2131 C1 B5 (HIV-1)
[25] = molecular target: HIV-1 Env of pseudovirus NAC_94UG103 (HIV-1)
[26] = molecular target: HIV-1 Env of NIH-060_Q769ENVd22 (HIV-1)
[27] = molecular target: HIV-1 Env of pseudovirus NAC_KNH1144 (HIV-1)
[28] = molecular target: HIV-1 Env of NAC_BG505 (HIV-1)
[29] = molecular target: HIV-1 Env of pseudovirus NIH-071_R1166.c01 (HIV-1)
[30] = molecular target: HIV-1 Env of isolate NIH-085_X2088 c9 (HIV-1)
[31] = molecular target: HIV-1 Env of NAC_WITO.33 (HIV-1)
[32] = molecular target: HIV-1 Env of pseudovirus NIH-055_CNE58 (HIV-1)
[33] = molecular target: HIV-1 Env of NIH-004_PVO.4 (HIV-1)
[34] = molecular target: HIV-1 Env of NIH-018_Du172.17 (HIV-1)
[35] = molecular target: HIV-1 Env of pseudovirus NIH-039_Ce2060 G9 (HIV-1)
[36] = molecular target: HIV-1 Env of NIH-063_0330.v4.c3 (HIV-1)
[37] = molecular target: HIV-1 Env of NIH-009_1006.11.C3.1601 (HIV-1)
[38] = molecular target: HIV-1 Env of NIH-016_SC05.8C11.2344 (HIV-1)
[39] = molecular target: HIV-1 Env of pseudovirus NIH-002_QHO692 .42 (HIV-1)
[40] = molecular target: HIV-1 Env of pseudovirus NIH-102_6545.v4.c1 (HIV-1)
[41] = molecular target: HIV-1 Env of NIH-070_R2184.c04 (HIV-1)
[42] = molecular target: HIV-1 Env of pseudovirus NIH-077_BJOX009000.02.4 (HIV-1)
[43] = molecular target: HIV-1 Env of pseudovirus NIH-007_CAAN5342.A2 (HIV-1)
[44] = molecular target: HIV-1 Env of NIH-022_ZM233M.PB6 (HIV-1)
[45] = molecular target: HIV-1 Env of NIH-058_Q23ENV17 (HIV-1)
[46] = molecular target: HIV-1 Env of pseudovirus NAC_92TH021 (HIV-1)

## PGZL1 (antibody)
[1]
  IC80 neutralization: 20.2 µg/mL
[2]
  neutralization IC50: 1.91 µg/mL
[3]
  neutralization IC50: > 50 µg/mL
[4]
  IC80 neutralization: 0.113 µg/mL
[5]
  neutralization IC50: 10 µg/mL
[6]
  IC80 neutralization: 30.5 µg/mL
[7]
  IC80 neutralization: 8.18 µg/mL
[8]
  IC80 neutralization: 40.2 µg/mL
[9]
  IC80 neutralization: 13.2 µg/mL
[10]
  neutralization IC50: > 50 µg/mL
[11]
  neutralization IC50: 16.5 µg/mL
[12]
  neutralization IC50: 2.88 µg/mL
[13]
  neutralization IC50: 15.2 µg/mL
[14]
  neutralization IC50: 25.3 µg/mL
[15]
  neutralization IC50: > 50 µg/mL
[16]
  IC80 neutralization: 9.5 µg/mL
[17]
  IC80 neutralization: > 50 µg/mL
[18]
  neutralization IC50: 16.7 µg/mL
[19]
  IC80 neutralization: 29.7 µg/mL
[20]
  IC80 neutralization: > 50 µg/mL
[21]
  neutralization IC50: 0.424 µg/mL
[22]
  IC80 neutralization: 15.8 µg/mL
[23]
  IC80 neutralization: > 50 µg/mL
[24]
  IC80 (µg/ml), TZM-bl pseudovirus neutralization: 3.5 µg/mL
[25]
  neutralization IC50: 24.1 µg/mL
[26]
  IC80 neutralization: > 50 µg/mL
[27]
  neutralization IC50: > 50 µg/mL
[28]
  IC80 neutralization: > 50 µg/mL
[29]
  neutralization IC50: 4.87 µg/mL
[30]
  IC80 (µg/ml), TZM-bl pseudovirus neutralization: > 50 µg/mL
[31]
  IC80 neutralization: 15.1 µg/mL
[32]
  neutralization IC50: 3.55 µg/mL
[33]
  IC80 neutralization: > 50 µg/mL
[34]
  IC80 neutralization: 1.6 µg/mL
[35]
  neutralization IC50: 15 µg/mL
[36]
  IC80 neutralization: > 50 µg/mL
[37]
  IC80 neutralization: > 50 µg/mL
[38]
  IC80 neutralization: 24.6 µg/mL
[39]
  neutralization IC50: 42 µg/mL
[40]
  neutralization IC50: > 50 µg/mL
[41]
  IC80 neutralization: > 50 µg/mL
[42]
  neutralization IC50: 3.97 µg/mL
[43]
  neutralization IC50: 34 µg/mL
[44]
  IC80 neutralization: 23.6 µg/mL
[45]
  IC80 neutralization: > 50 µg/mL
[46]
  neutralization IC50: 2.12 µg/mL

## 4E10 (antibody)
[1]
  IC80 neutralization: 5.43 µg/mL
[2]
  neutralization IC50: 0.226 µg/mL
[3]
  neutralization IC50: 5.54 µg/mL
[4]
  IC80 neutralization: 0.258 µg/mL
[5]
  neutralization IC50: 0.621 µg/mL
[6]
  IC80 neutralization: 5.66 µg/mL
[7]
  IC80 neutralization: 0.927 µg/mL
[8]
  IC80 neutralization: 8.62 µg/mL
[9]
  IC80 neutralization: 1.38 µg/mL
[10]
  neutralization IC50: 5.48 µg/mL
[11]
  neutralization IC50: 1.29 µg/mL
[12]
  neutralization IC50: 0.769 µg/mL
[13]
  neutralization IC50: 1.21 µg/mL
[14]
  neutralization IC50: 2.77 µg/mL
[15]
  neutralization IC50: 7.12 µg/mL
[16]
  IC80 neutralization: 1.58 µg/mL
[17]
  IC80 neutralization: 36.1 µg/mL
[18]
  neutralization IC50: 0.847 µg/mL
[19]
  IC80 neutralization: 3.17 µg/mL
[20]
  IC80 neutralization: 22.2 µg/mL
[21]
  neutralization IC50: 0.102 µg/mL
[22]
  IC80 neutralization: 1.62 µg/mL
[23]
  IC80 neutralization: 16.6 µg/mL
[24]
  IC80 (µg/ml), TZM-bl pseudovirus neutralization: 0.765 µg/mL
[25]
  neutralization IC50: 1.77 µg/mL
[26]
  IC80 neutralization: 6.57 µg/mL
[27]
  neutralization IC50: 11.5 µg/mL
[28]
  IC80 neutralization: 4.88 µg/mL
[29]
  neutralization IC50: 0.383 µg/mL
[30]
  IC80 (µg/ml), TZM-bl pseudovirus neutralization: > 50 µg/mL
[31]
  IC80 neutralization: 1.82 µg/mL
[32]
  neutralization IC50: 0.563 µg/mL
[33]
  IC80 neutralization: 38.7 µg/mL
[34]
  IC80 neutralization: 0.474 µg/mL
[35]
  neutralization IC50: 1.24 µg/mL
[36]
  IC80 neutralization: 4.17 µg/mL
[37]
  IC80 neutralization: 22.7 µg/mL
[38]
  IC80 neutralization: 3.44 µg/mL
[39]
  neutralization IC50: 6.19 µg/mL
[40]
  neutralization IC50: 2.35 µg/mL
[41]
  IC80 neutralization: 0.762 µg/mL
[42]
  neutralization IC50: 0.389 µg/mL
[43]
  neutralization IC50: 2.84 µg/mL
[44]
  IC80 neutralization: 4.99 µg/mL
[45]
  IC80 neutralization: 5.37 µg/mL
[46]
  neutralization IC50: 0.348 µg/mL

## VRC01 (antibody)
[1]
  IC80 neutralization: 3.62 µg/mL
[2]
  neutralization IC50: 0.17 µg/mL
[3]
  neutralization IC50: 0.019 µg/mL
[4]
  IC80 neutralization: 0.058 µg/mL
[5]
  neutralization IC50: 0.076 µg/mL
[6]
  IC80 neutralization: > 50 µg/mL
[7]
  IC80 neutralization: 0.505 µg/mL
[8]
  IC80 neutralization: 0.414 µg/mL
[9]
  IC80 neutralization: 0.925 µg/mL
[10]
  neutralization IC50: 0.023 µg/mL
[11]
  neutralization IC50: 0.038 µg/mL
[12]
  neutralization IC50: 0.231 µg/mL
[13]
  neutralization IC50: 0.348 µg/mL
[14]
  neutralization IC50: 0.807 µg/mL
[15]
  neutralization IC50: 0.114 µg/mL
[16]
  IC80 neutralization: 20.2 µg/mL
[17]
  IC80 neutralization: > 50 µg/mL
[18]
  neutralization IC50: > 50 µg/mL
[19]
  IC80 neutralization: 0.296 µg/mL
[20]
  IC80 neutralization: 0.087 µg/mL
[21]
  neutralization IC50: > 50 µg/mL
[22]
  IC80 neutralization: 2.34 µg/mL
[23]
  IC80 neutralization: 2.38 µg/mL
[24]
  IC80 (µg/ml), TZM-bl pseudovirus neutralization: 0.284 µg/mL
[25]
  neutralization IC50: 0.187 µg/mL
[26]
  IC80 neutralization: 0.092 µg/mL
[27]
  neutralization IC50: 0.134 µg/mL
[28]
  IC80 neutralization: 0.213 µg/mL
[29]
  neutralization IC50: 0.488 µg/mL
[30]
  IC80 (µg/ml), TZM-bl pseudovirus neutralization: > 50 µg/mL
[31]
  IC80 neutralization: 0.228 µg/mL
[32]
  neutralization IC50: 0.083 µg/mL
[33]
  IC80 neutralization: 0.79 µg/mL
[34]
  IC80 neutralization: > 50 µg/mL
[35]
  neutralization IC50: 0.109 µg/mL
[36]
  IC80 neutralization: 0.13 µg/mL
[37]
  IC80 neutralization: 0.571 µg/mL
[38]
  IC80 neutralization: 1.98 µg/mL
[39]
  neutralization IC50: 1.96 µg/mL
[40]
  neutralization IC50: > 50 µg/mL
[41]
  IC80 neutralization: 0.413 µg/mL
[42]
  neutralization IC50: 0.565 µg/mL
[43]
  neutralization IC50: 0.691 µg/mL
[44]
  IC80 neutralization: 5.69 µg/mL
[45]
  IC80 neutralization: 0.148 µg/mL
[46]
  neutralization IC50: 0.324 µg/mL
